Results taken from paper PMC10224958, “Cryo-EM structure of the Saccharomyces cerevisiae Rpd3L histone deacetylase complex” (Nature Communications, 2023).
Each block holds one binder with its values, some of them ahead of it.

B2: Sds3 (natural protein, S. cerevisiae, UniProt P40505 1-327, looked up)
chain: MAIQKVSNKDLSRKDKRRFNIESKVNKIYQNFYSERDNQYKDRLTALQTDLTSLHQGDNGQYARQVRDLEEERDLELVRLRLFEEYRVSRSGIEFQEDIEKAKAEHEKLIKLCKERLYSSIEQKIKKLQEERLLMDVANVHSYAMNYSRPQYQKNTRSHTVSGWDSSSNEYGRDTANESATDTGAGNDRRTLRRRNASKDTRGNNNNQDESDFQTGNGSGSNGHGSRQGSQFPHFNNLTYKSGMNSDSDFLQGINEGTDLYAFLFGEKNPKDNANGNEKKKNRGAQRYSTKTAPPLQSLKPDEVTEDISLIRELTGQPPAPFRLRSD
notes: Sds3, subunit of the S. cerevisiae Rpd3L complex; endogenous subunit
B3: Dep1 (natural protein, S. cerevisiae, UniProt P31385 1-405, looked up)
chain: MSQQTPQESEQTTAKEQDLDQESVLSNIDFNTDLNHNLNLSEYCISSDAGTEKMDSDEEKSLANLPELKYAPKLSSLVKQETLTESLKRPHEDEKEAIDEAKKMKVPGENEDESKEEEKSQELEEAIDSKEKSTDARDEQGDEGDNEEENNEEDNENENEHTAPPALVMPSPIEMEEQRMTALKEITDIEYKFAQLRQKLYDNQLVRLQTELQMCLEGSHPELQVYYSKIAAIRDYKLHRAYQRQKYELSCINTETIATRTFIHQDFHKKVTDLRARLLNRTTQTWYDINKERRDMDIVIPDVNYHVPIKLDNKTLSCITGYASAAQLCYPGEPVAEDLACESIEYRYRANPVDKLEVIVDRMRLNNEISDLEGLRKYFHSFPGAPELNPLRDSEINDDFHQWAQ
notes: Dep1, subunit of the S. cerevisiae Rpd3L complex; endogenous subunit
B7: Rpd3 (enzyme, S. cerevisiae, UniProt P32561 1-433, looked up)
chain: MVYEATPFDPITVKPSDKRRVAYFYDADVGNYAYGAGHPMKPHRIRMAHSLIMNYGLYKKMEIYRAKPATKQEMCQFHTDEYIDFLSRVTPDNLEMFKRESVKFNVGDDCPVFDGLYEYCSISGGGSMEGAARLNRGKCDVAVNYAGGLHHAKKSEASGFCYLNDIVLGIIELLRYHPRVLYIDIDVHHGDGVEEAFYTTDRVMTCSFHKYGEFFPGTGELRDIGVGAGKNYAVNVPLRDGIDDATYRSVFEPVIKKIMEWYQPSAVVLQCGGDSLSGDRLGCFNLSMEGHANCVNYVKSFGIPMMVVGGGGYTMRNVARTWCFETGLLNNVVLDKDLPYNEYYEYYGPDYKLSVRPSNMFNVNTPEYLDKVMTNIFANLENTKYAPSVQLNHTPRDAEDLGDVEEDSAEAKDTKGGSQYARDLHVEHDNEFY
notes: Rpd3, histone deacetylase, the catalytic subunit of the S. cerevisiae Rpd3L complex; endogenous subunit; Present in two copies in the Rpd3L complex, one in each lobe; also called Rpd3-I; Rpd3-II

How the values were obtained:
Sin3 [1] = biological target: T1, Sin3 (S. cerevisiae, UniProt P22579 1-1536); assay: cryo-EM structure; Rpd3L complex purified by TAP, crosslinked on ice with 1 mM BS3 for 15 min, graphene oxide coated grid; map at 3.5 Å, lobes I and II focus refined to 3.4 Å; conditions: both partners purified
T1 construct: Sin3, principal scaffolding subunit of the S. cerevisiae Rpd3L complex; endogenous subunit; Present in two copies in the Rpd3L complex, one in each lobe; also called Sin3-I; Sin3-II

Sds3 = biological target: B2; assay: as above; conditions: both partners purified
Rpd3 [2] = biological target: B7; assay: as above; conditions: both partners purified
[3] = biological target: T2, co-expressed complex of MBP-tagged human BRMS1 (residues 51-179) and His6-tagged mouse SDS3 (residues 43-234) (human | mouse, UniProt Q9HCU9 51-179; Q8BR65 43-234); assay: SEC; Ni-NTA purified proteins on a Superdex 75 GL column in 25 mM MOPS pH 7.5, 150 mM NaCl, 1 mM TCEP; co-elution; conditions: both partners purified
T2 construct: BRMS1, human, residues 51-179; SDS3, mouse, residues 43-234; The two chains were co-expressed and then combined with the separately expressed ARID4A R2 domain; also called SDS3, BRMS1; source: E. coli, co-expressed, purified (Ni-NTA, SEC)
T2 sequence (looked up) 1: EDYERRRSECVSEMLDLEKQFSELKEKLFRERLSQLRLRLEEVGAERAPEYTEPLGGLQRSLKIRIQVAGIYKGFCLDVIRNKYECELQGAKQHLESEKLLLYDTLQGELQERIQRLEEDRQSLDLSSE
T2 sequence (looked up) 2: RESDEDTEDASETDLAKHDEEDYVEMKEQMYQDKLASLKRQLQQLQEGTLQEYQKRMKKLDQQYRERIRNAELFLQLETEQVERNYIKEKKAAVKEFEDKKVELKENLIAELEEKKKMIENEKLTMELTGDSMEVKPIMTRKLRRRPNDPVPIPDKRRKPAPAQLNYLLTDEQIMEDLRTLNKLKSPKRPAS

Rpd3 [4] = biological target: B7; assay: affinity purification with mass spectrometry; tandem affinity purification from S. cerevisiae lysate by the TAP tag on Rxt2 (IgG resin, TEV protease, calmodulin resin; washes with 500 to 750 mM KCl); the purified complex analysed by mass spectrometry; conditions: partners not purified
Sin3 [5] = biological target: T1, Sin3; assay: as above; conditions: partners not purified
Dep1 = biological target: B3; assay: cryo-EM structure; Rpd3L complex purified by TAP, crosslinked on ice with 1 mM BS3 for 15 min, graphene oxide coated grid; map at 3.5 Å, lobes I and II focus refined to 3.4 Å; conditions: both partners purified

T1 sequence (P22579 whole entry): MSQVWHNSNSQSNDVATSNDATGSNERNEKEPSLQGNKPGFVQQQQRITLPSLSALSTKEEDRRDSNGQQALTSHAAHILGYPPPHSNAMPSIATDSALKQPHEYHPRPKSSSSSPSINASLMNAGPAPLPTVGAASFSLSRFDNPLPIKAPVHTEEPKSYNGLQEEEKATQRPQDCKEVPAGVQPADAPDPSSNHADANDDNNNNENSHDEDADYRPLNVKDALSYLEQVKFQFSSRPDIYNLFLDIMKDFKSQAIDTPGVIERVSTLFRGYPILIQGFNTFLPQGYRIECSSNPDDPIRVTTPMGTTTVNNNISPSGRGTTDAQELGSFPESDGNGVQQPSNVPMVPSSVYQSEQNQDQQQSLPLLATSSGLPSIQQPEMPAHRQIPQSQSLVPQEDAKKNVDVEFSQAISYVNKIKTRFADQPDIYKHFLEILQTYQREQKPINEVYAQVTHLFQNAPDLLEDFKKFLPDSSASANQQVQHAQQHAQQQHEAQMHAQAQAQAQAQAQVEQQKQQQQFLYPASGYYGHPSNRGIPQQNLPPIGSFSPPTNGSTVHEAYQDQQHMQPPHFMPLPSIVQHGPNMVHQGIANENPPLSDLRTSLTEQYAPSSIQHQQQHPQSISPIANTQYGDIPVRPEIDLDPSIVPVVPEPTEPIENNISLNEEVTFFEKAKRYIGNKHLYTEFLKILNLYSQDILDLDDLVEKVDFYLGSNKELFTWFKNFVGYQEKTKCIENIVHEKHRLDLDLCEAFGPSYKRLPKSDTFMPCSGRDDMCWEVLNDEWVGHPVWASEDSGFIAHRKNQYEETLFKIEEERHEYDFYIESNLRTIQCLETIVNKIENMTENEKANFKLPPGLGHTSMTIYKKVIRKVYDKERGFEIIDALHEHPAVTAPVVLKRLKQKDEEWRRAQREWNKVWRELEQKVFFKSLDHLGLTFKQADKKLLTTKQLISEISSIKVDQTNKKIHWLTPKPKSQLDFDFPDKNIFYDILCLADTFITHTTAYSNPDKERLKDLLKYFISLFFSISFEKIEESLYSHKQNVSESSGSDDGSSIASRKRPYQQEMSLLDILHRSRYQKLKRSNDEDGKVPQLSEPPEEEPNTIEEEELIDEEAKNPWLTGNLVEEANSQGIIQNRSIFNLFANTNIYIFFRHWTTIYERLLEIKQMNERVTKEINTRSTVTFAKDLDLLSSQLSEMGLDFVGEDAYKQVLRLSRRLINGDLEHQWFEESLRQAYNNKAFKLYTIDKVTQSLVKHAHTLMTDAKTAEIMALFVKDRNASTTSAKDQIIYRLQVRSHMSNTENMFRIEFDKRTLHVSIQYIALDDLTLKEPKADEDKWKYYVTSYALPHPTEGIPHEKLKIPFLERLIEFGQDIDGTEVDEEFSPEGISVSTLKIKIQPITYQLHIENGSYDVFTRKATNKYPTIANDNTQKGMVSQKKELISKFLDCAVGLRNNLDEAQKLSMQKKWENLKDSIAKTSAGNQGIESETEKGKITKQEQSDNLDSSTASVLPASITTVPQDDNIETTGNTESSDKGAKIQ

Binder: B2
binding result (Sin3 [1]): binds

Binder: B3
binding result (Rpd3 [2]): binds
binding result (Sin3 [1]): binds

B4: His6-tagged human ARID4A R2 domain (residues 1164-1230) (domain or fragment, UniProt P29374 1164-1230, looked up)
chain: SPRTYKWSFQLNELDNMNSTERISFLQEKLQEIRKYYMSLKSEVATIDRRRKRLKKKDREVSHAGAS
notes: ARID4A, human, R2 domain, residues 1164-1230; Construct in the pMCSG7 vector; source: E. coli, expressed separately, purified (Ni-NTA, SEC)
binding result [3]: binds

Binder: B7
binding result (Sin3 [1]): binds

Second part, the binder after the results:

binding result (Sin3 [1]): binds
binding result (Sds3): binds
B1: Sap30 (natural protein, S. cerevisiae, UniProt P38429 1-201, looked up)
chain: MARPVNTNAETESRGRPTQGGGYASNNNGSCNNNNGSNNNNNNNNNNNNNSNNSNNNNGPTSSGRTNGKQRLTAAQQQYIKNLIETHITDNHPDLRPKSHPMDFEEYTDAFLRRYKDHFQLDVPDNLTLQGYLLGSKLGAKTYSYKRNTQGQHDKRIHKRDLANVVRRHFDEHSIKETDCIPQFIYKVKNQKKKFKMEFRG
notes: Sap30, subunit of the S. cerevisiae Rpd3L complex; endogenous subunit

binding result (Rpd3 [4]): binds
binding result (Sin3 [5]): binds
B5: Rxt2 with a TAP tag at the C-terminus (natural protein, S. cerevisiae)
chain: MTIRSSMKNNAELESKSVLANESNIISTFTRRIIKEKSGNYQVLKRSLDGKLIYPEATGISSNRGNKLLQRSEVVTRRDLNNSKPMIEQTVFYNGSEHRLLQTNIVTDSRRKRIKFTPDINVEPVLVGDENDIDGSEKEDENITDEYYGEEDDDDLSKLVNVKEILTPILSLGDIINHKTISRTFSSPILKNLALQIILMIEKEQMSVVRYSQFLEVFLGDHPEPIYESNLNLPSYNHNLTLPEDRGASDEDDINNKNNINEVNSNSLSTEAGHINNGMEEFGEEDPFFALPRLEQSNALLSLLPSSSGSASISTLTAAEQQQLNEEIESARQLSQIALQRNKEFIRNLQKIRKSVIKANRIRGRILNWSREYLGISDDDITIPVALRVVKRGLISATTNKTTNFEEEIENTMEDGVVDDNEPDEEANRA
notes: Rxt2, subunit of the S. cerevisiae Rpd3L complex; expressed from the tagged strain; not shown: TAP tag, C-terminal, kept

binding result (Rpd3 [2]): binds
binding result (Dep1): binds
B6: Pho23 (natural protein, S. cerevisiae, UniProt P50947 1-330, looked up)
chain: MSSPANLFPGLNDITDVLEEFPLATSRYLTLLHEIDAKCVHSMPNLNERIDKFLKKDFNKDHQTQVRLLNNINKIYEELMPSLEEKMHVSSIMLDNLDRLTSRLELAYEVAIKNTEIPRGLRLGVDNHPAMHLHHELMEKIESKSNSKSSQALKSESRREAMAANRRQGEHYSASTHQQDDSKNDANYGGSRHESQDHTGNNTNSRKRANAANTNNADPETKKRKRRVATTAVSPSTISTATAVNNGRIGTSTASRGVSSVGNSNNSRISRPKTNDYGEPLYCYCNQVAYGEMVGCDGADCELEWFHLPCIGLETLPKGKWYCDDCKKKL
notes: Pho23, subunit of the S. cerevisiae Rpd3L complex; endogenous subunit

binding result (Sin3 [1]): binds
B8: Rxt3 (natural protein, S. cerevisiae, UniProt Q07458 1-294, looked up)
chain: MSVSEQDPNRAYRETQSQIYKLQETLLNSARTKNKQEEGQESNTHSFPEQYMHYQNGRNSAYDLPNVSSQSVLAFTEKHYPNKLKNLGTLYYNRFKEGSFDEDSTSYSDRHSFPYNLYDNTLPPPFLPAIGIQNINNIATLKITYEDIQASFNNIESPRKRNNEIWGCDIYSDDSDPILVLRHCGFKIGAPSGGSFHKLRRTPVNVTNQDNVTGNLPLLEGTPFDLEVELLFLPTLQKYPSVKRFDITSREWGSEATVIHDGLSYGIYSIVIKQRLDRDKPHEPNGYIKNLKWT
notes: Rxt3, subunit of the S. cerevisiae Rpd3L complex; endogenous subunit
